One substance from PMC12121997 can be followed below.

Test [1] has as its target Nucleosome core particle: Cse4-containing histone octamer wrapped with Widom 601 DNA (S. cerevisiae | K. lactis) (UniProt P36012). The test can be described thus: optical trap assay (bead-microtubule binding, then rupture force); 40 nM His6-NCPs held on anti-His6 polystyrene beads; 10 nM OA or 20 nM Mif2, 10 nM 2D-MIND, 10 nM Ndc80c and 5 nM Dam1c free in solution; bead brought by laser trap to the dynamic plus end of a surface-anchored microtubule; 1x BRB80, 1 mM GTP, 16 uM tubulin, room temperature; 1 pN preload, then ramping force until detachment; negative controls with OA or Mif2 omitted.

Test [2] deals with Nucleosome core particle: Cse4-containing histone octamer wrapped with chimeric centromeric DNA (CCEN) (S. cerevisiae | K. lactis) (UniProt P36012). The test is described as above.

Some results are limits rather than exact numbers.

Regarding “Mif2-linker-(27-392)MBP (from UniProt P35201 1-549) (natural protein)”, the percent of NCP-coated beads that bound microtubules in test [1] and in test [2] was more than 78% each time.
